From patent US9688719B2, “Glycogen synthase kinase-3 inhibitors” (Ramot at Tel-Aviv University Ltd., priority 2011, dated 2017)

Columns and labels:
pIRS-1 = assay: In vitro kinase assay of GSK-3β mutants with substrate pIRS-1; format: biochemical; conditions: mean ± SEM; WT set to 100%
Procedure: (§1) HEK-293 cells were grown in Dulbecco's Modified Eagle's Medium (DMEM), supplemented with 10% fetal calf serum (FCS), 2 mM glutamine, 100 units/ml penicillin, and 100 μg/ml streptomycin. HEK-293 cells were transiently transfected with indicated constructs, using calcium phosphate method as described [Ilouz et al. (2006) supra]. Cells were lysed in ice-cold buffer G (20 mM Tris-HCl, pH 7.5, 10 mM β-glycerophosphate, 10% glycerol, 1 mM EGTA, 1 mM EDTA, 50 mM NaF, 5 mM sodium pyrophosphate, 0.5 mM orthovanadate, 1 mM benzamidine, 10 μg/ml leupeptin, 5 μg/ml aprotinin, 1 μg/ml pepstatin, and 0.5% Triton X100). Cell extracts were centrifuged for 30 minutes at 15,000×g. Supernatants were collected, and equal amounts of proteins were boiled with SDS sample buffer and subjected to gel electrophoresis (7.5-12% polyacrylamide gel), transferred to nitrocellulose membranes, and immunoblotted with indicated antibodies. For partial purification, cells were lysed in buffer H (20 mM Tris, pH 7.3, 1 mM EGTA, 1 mM EDTA, 1 mM orthovanadate, 25 μg/ml leupeptin, 25 μg/ml aprotinin, and 25 μg/ml pepstatin A, 500 nM microcystine LR, and 0.25% Triton X100). The lysates were centrifuged at 15,000×g. The resulting supernatants were passed through DE-52 (Whatman, Maidstone, England) mini-columns that were equilibrated with buffer H. GSK-3β proteins were eluted with the same buffer containing 0.02 M NaCl. Equal amounts of proteins were used for in vitro kinase assays.
(§2) The GSK-3β proteins (WT or mutants) were incubated with indicated substrate in a reaction mixture (50 mM Tris-HCl, pH 7.3, 10 mM magnesium acetate, and 0.01% β-mercaptoethanol) together with 100 μM ^32P[γ-ATP] (0.5 μCi/assay) for 15 minutes. Reactions were stopped by spotting on p81 paper (Whatman) washed with phosphoric acid, and counted for radioactivity as previously described [Ilouz et al. (2006) supra]. In assays from cells overexpressing GSK-3 proteins, the activity of the endogenous GSK-3 that was determined in cells transfected with the pCMV4 vector was subtracted from the activity values obtained for WT and mutants.
(§3) The GSK-3β mutants were partially purified by ion exchange chromatography, and their abilities to phosphorylate peptide substrates were tested in in vitro kinase assays. The substrates were: pIRS-1, p9CREB, and pGS-1, phosphorylated peptides derived from the insulin receptor substrate-1 (IRS-1), cAMP responsive element binding protein (CREB), and glycogen synthase, respectively.

p9CREB = assay: In vitro kinase assay of GSK-3β mutants with substrate p9CREB; format: biochemical; conditions: mean ± SEM; WT set to 100%
Procedure: as §1, §2, §3

pGS-1 = assay: In vitro kinase assay of GSK-3β mutants with substrate pGS-1; format: biochemical; conditions: mean ± SEM; WT set to 100%
Procedure: as §1, §2, §3

[1] = system: CREB (serine 129) and N'IRS-1 (serine 332); assay: Phosphorylation of protein substrates in HEK-293 cells expressing GSK-3β WT or F93A; format: cell-based; conditions: forskolin or PMA treated, versus WT-GSK-3β, FIGS. 1E-H
Procedure: The role of Phe93 in substrate binding by employing a cellular system and protein substrates (i.e., not peptides) was further explored. To this end, the WT-GSK-3β and F93A mutant were expressed in HEK-293 cells together with GSK-3 substrates CREB or N′IRS-1 (the N-terminal region of IRS-1). Because GSK-3 requires pre-phosphorylation of its substrates, the cells were treated with forskolin to enhance CREB phosphorylation via activation of cAMP dependent kinase (PKA), or with phorbol ester (PMA) to enhance N′IRS-1 phosphorylation via activation of protein kinase C (PKC).
The phosphorylation of CREB at serine 129, and N′IRS-1 at serine 332 (both GSK-3 phosphorylation sites) was then examined.
Thus, HEK293 cells were co-transfected with WT-GSK-3β or F93A plasmids together with construct coding for CREB. Cells were treated with forskolin (10 μM, 1 hour), and cell extracts were subjected to Western blot analysis using anti-phospho CREB (Ser 129/133) antibody, as presented in FIG. 1E. Expression levels of CREB and GSK-3 proteins are indicated. Results are means of three independent experiments ±SEM.
A similar assay was conducted using N′IRS-1 cDNA construct instead of CREB, and cells were treated with PMA (100 nM, 30 minutes). Expression levels of N′IRS-1 and GSK-3β are indicated. Results are means of three independent experiments ±SEM.

B1: F93A: GSK-3β mutant, F93 replaced by alanine (protein)
chain: MSGRPRTTSFAESCKPVQQPSAFGSMKVSRDKDGSKVTTVVATPGQGPDRPQEVSYTDTKVIGNGSFGVVYQAKLCDSGELVAIKKVLQDKRAKNRELQIMRKLDHCNIVRLRYFFYSSGEKKDEVYLNLVLDYVPETVYRVARHYSRAKQTLPVIYVKLYMYQLFRSLAYIHSFGICHRDIKPQNLLLDPDTAVLKLCDFGSAKQLVRGEPNVSYICSRYYRAPELIFGATDYTSSIDVWSAGCVLAELLLGQPIFPGDSGVDQLVEIIKVLGTPTREQIREMNPNYTEFKFPQIKAHPWTKDSSGTGHFTSGVRVFRPRTPPEAIALCSRLLEYTPTARLTPLEACAHSFFDELRDPNVKLPNGRDTPALFNFTTQELSSNPPLATILIPPHARIQAAASTPTNATAASDANTGDRGQTNNAASASASNST
modifications: GSK-3 beta, F93A mutant
notes: GSK-3β mutant, F93 replaced by alanine
B1 was tested, and the “Substrate phosphorylation (% of WT GSK-3β), pIRS-1” value (pIRS-1) was 42 ± 13 % of WTGSK-3β, the “Substrate phosphorylation (% of WT GSK-3β), p9CREB” value (p9CREB) was 46 ± 2 % of WTGSK-3β and the “Substrate phosphorylation (% of WT GSK-3β), pGS-1” value (pGS-1) was 13 ± 7 % of WTGSK-3β. The “phosphorylation of CREB and N'IRS-1 in cells” value [1] was “did not enhance the phosphorylation”.
